Measured values published in doi:10.1101/2024.12.12.628227 (bioRxiv, 2024).
Where a chain is given by its changes, count along the chain named. In names and notes the source's numbering stands.

B1: parental scFv-osmY fusion protein (tilvestamab scFv) (scFv, V domains shown)
VH: EVQLVESGGGLVQPGGSLRLSCAASGYSFTDFYINWVRQAPGKGLEWVARIFPGGDNTYYNEKFKGRFTLSADTSKSTAYLQMNSLRAEDTAVYYCARRGLYYAMDYWGQGTLVTVSS
VL: DIQMTQSPSSLSASVGDRVTITCRSSQSLVHSNGIPYLHWYQQKPGKAPKLLIYRVSNRFSGVPSRFSGSGSGTDFTLTISSLQPEDFATYYCSQGTHVPPTFGQGTKVEIK
B2: tilvestamab scFv-osmY G101A (scFv, V domains shown)
VH: B1 VH with G100A
VL: B1 VL
B3: tilvestamab scFv-osmY G233A (scFv, V domains shown)
VH: B1 VH
VL: B1 VL with G96A
B4: tilvestamab scFv-osmY D32A (scFv, V domains shown)
VH: B1 VH with D31A
VL: B1 VL
B5: tilvestamab scFv-osmY G233S (scFv, V domains shown)
VH: B1 VH
VL: B1 VL with G96S
B6: tilvestamab scFv-osmY T31A (scFv, V domains shown)
VH: B1 VH with T30A
VL: B1 VL
B7: tilvestamab scFv-osmY I35A (scFv, V domains shown)
VH: B1 VH with I34A
VL: B1 VL
B8: tilvestamab scFv-osmY Y103A (scFv, V domains shown)
VH: B1 VH with Y102A
VL: B1 VL
B9: tilvestamab scFv-osmY F33Y (scFv, V domains shown)
VH: B1 VH with F32Y
VL: B1 VL
B10: tilvestamab scFv-osmY F33T (scFv, V domains shown)
VH: B1 VH with F32T
VL: B1 VL
B11: tilvestamab scFv-osmY Y108A (scFv, V domains shown)
VH: B1 VH with Y107A
VL: B1 VL
B12: tilvestamab scFv-osmY F33A (scFv, V domains shown)
VH: B1 VH with F32A
VL: B1 VL
B13: tilvestamab scFv-osmY L102A (scFv, V domains shown)
VH: B1 VH with L101A
VL: B1 VL
B14: tilvestamab scFv-osmY M106A (scFv, V domains shown)
VH: B1 VH with M105A
VL: B1 VL
B15: tilvestamab scFv-osmY F33S (scFv, V domains shown)
VH: B1 VH with F32S
VL: B1 VL
B16: tilvestamab scFv-osmY Y103S (scFv, V domains shown)
VH: B1 VH with Y102S
VL: B1 VL
B17: tilvestamab scFv-osmY P238A (scFv, V domains shown)
VH: B1 VH
VL: B1 VL with P101A
B18: tilvestamab scFv-osmY L102Y (scFv, V domains shown)
VH: B1 VH with L101Y
VL: B1 VL
B19: tilvestamab scFv-osmY L102S (scFv, V domains shown)
VH: B1 VH with L101S
VL: B1 VL
B20: tilvestamab scFv-osmY L102T (scFv, V domains shown)
VH: B1 VH with L101T
VL: B1 VL

molecular target: human AXL Ig1 domain fused to human Fc (Homo sapiens, UniProt P30530); assay: BLI

Binder | binding result
B1 | binds
B2 | binds
B3 | binds
B4 | binds
B5 | binds
B6 | binds
B7 | binds
B8 | binds
B9 | binds
B10 | binds
B11 | binds
B12 | binds
B13 | binds
B14 | binds
B15 | binds
B16 | binds
B17 | binds
B18 | binds
B19 | binds
B20 | binds
